From patent publication US11066655B2, “RNA polymerase, methods of purification and methods of use” (President and Fellows of Harvard College, priority 2013, dated 2021)

Columns and labels:
[1] = system: template for a 37 nt RNA or a 2.7 knt RNA; experiment: 2′-F-dNTP incorporation with mixed cofactor Mg2+/Mn2+; assay type: biochemical; details: mixed cofactors Mg2+/Mn2+
Text: FIG. 25A depicts a gel showing that WT Syn5 polymerase incorporates 2′-F-C/UTP and all four 2′-F′dNTP in the presence of mixed cofactor Mg^2+/Mn^2+.
FIG. 25B depicts a gel comparing 2′-F′dNTP incorporation using Mg^2+ versus the mixed cofactor.
According to certain aspects of the invention, co-factors such as Mg^+2 and Mn^+2 are used to reduce discrimination against 2′-F-dNTP of wild-type Syn5 RNA polymerase. The optimum cofactor concentration of Mg^2+ or Mn^2+ is similar for Syn5 RNA polymerase, and Mg^2+ and Mn^2+ are provided as mixed cofactors for the Syn5 RNA polymerase. Without wishing to be bound by scientific theory, a substantial proportion of Syn5 RNA polymerase in the reaction may utilize one Mg^2+ and one Mn^2+ in their active sites for catalysis (based on the two-metal-ion mechanism for polymerase catalysis) so that both high overall yield and low discrimination against 2′-F-dNTP can be achieved with the methods described herein.
The reaction components were incubated at 37° C. for 4 hrs. 0.4 µl of the reaction mixture were loaded onto 10% TBE gel or 2% agarose gel and stained with ethidium bromide. […] See FIG. 25A lane 5 vs lane 1; FIG. 25B lane 3 vs lane 1). […]

[2] = Solubility / precipitation of the purified enzyme; assay type: physicochemical; details: transcription reaction
Description: His-tagged Syn5 RNAP was expressed from a pET24 vector harboring His-tagged Syn5 RNAP gene between the NdeI and NotI sites (Zhu et al. (2013)) and purified by Ni-NTA agarose and gel filtration chromatography. 2 M NaCl was present during the purification procedure and was removed by dialysis as the protein was finally concentrated. E. coli BL21(DE3) cells over-producing the protein were cultured in 2 L LB medium containing 50 µg/ml kanamycin at 37° C. until they reached an OD600 of approximately 1.2. The gene for Syn5 RNAP was induced by the addition of 0.5 mM IPTG at 16° C. and incubation continued for 3 hr. Cells were harvested, resuspended in 50 mM sodium phosphate, pH 8.0, 100 mM NaCl, and lysed by three cycles of freeze-thaw in the presence of 0.5 mg/ml lysozyme. 2 M NaCl was then added to the lysed cells and the cleared lysate was collected by centrifugation. 2 ml Ni-NTA agarose was added to the clear lysate and mixed at 4° C. overnight. The resin was then washed with 30 ml of wash buffer (50 mM sodium phosphate, pH 8.0, 2 M NaCl, and 20 mM imidazole). […] Fractions were analyzed on SDS-PAGE gels and those with Syn5 RNAP over 80% were collected and concentrated with Amicon Ultra-15 Centrifugal Filter Units (Millipore) to 1 ml. […] Fractions were analyzed on SDS-PAGE gels and those with homogenous Syn5 RNAP were pooled. […]

B1: Syn5 RNAP: single subunit DNA-dependent RNA polymerase from marine cyanophage Syn5, amino acid sequence SEQ ID NO:23 (protein)
chain: MSFDLIARQLQRETEAAELARKRLQDARREANERSYASSNIESRKAIATFLDPIAQRIGERLFTLRRGTGAVDAAEVYKHLKNADHHHLALITMKTALDVLGKDPEPQIQQLTTAIGRNIQLELRLTYYAEENPELYKQASRFFHAGTGTRQKATVIKLKFNREGIEWDQWSRVTCHKVGQWLMLAMADVTGWIERATDRTSGGRKTKTRICYSREFLQHRDTILAAAEQLAFCQWPMLCPPIEWSNDHNGGYLSEQIRRVNPLIRKTGPLGTRKQGDIPLAMLNNLQGQAYKVNPEVLDIANHCYESNVTVGKFIRHAPLPVPPSPGEDCTEDQLTAYKRARREAEDFNAQISQKNWRTTEVMYVARKYADEASFWMPASFDYRGRVYFLNTALNPQGTDFDKALLYFAEEGPVNEWWLSFHVATTYGLDKETMVNRVQWARDNHELIDRIASDPVRHTEWHDADEPWCFLAACLEYKACVIDGTKQTSGLPIGIDATCSGLQHLAAMTRCGRTAALVNVTPTDKPADAYKTVAQASLKHLPKEQHEWITRKVTKRPVMCTPYGVTMSSARGYIRDQLVKDGHKEDLRSPGVLNGIVKAIFNEAIPEVIPGPVQVMAWLKRSAGQIIDRGDSTITWTTPSGFEVVQDLKKSKTYEVKTRIMGGARIKLQVGDGFTDEPDRDHHKSALAPNVVHSNDASLLHLTFAFWDKPFTVIHDCVLGRSCDMDQMGSDIRLHFAEMYKADVMQDWADQVGVELPVDLIKNTLDIDSVNQSLYFFS
modifications: Amino acid sequence of a cyanophage Syn5 RNAP
Question: With B1 as the molecule, how does the “RNA with all four 2′-F-dNMPs” value [1] read?
Answer: substantial yield

Question: And the “yield of 2′-F-dCMP/2′-F-dUMP incorporated RNA” value [1]?
Answer: better yield

Question: And the “final concentration in the reaction resulting in severe protein precipitation” value [2]?
Answer: over 5 µM
